Measured values published in patent US20160145343A1 (UNIVERSITY OF PITTSBURGH OF THE COMMONWEALTH SYSTEM OF …, published 2016).
Where no end group is shown, it is not given here. The star is where a group is joined. αGalNAc = CC(=O)N[C@@H]1[C@@H](O)[C@@H](O)[C@@H](CO)O[C@@H]1*; Galβ1‑3GalNAc = TF-antigen

Columns and labels:
[1] = molecular target: T1, SEQ ID NO: 346 glycopeptide with TF-antigen at Thr16; test: ELISA on coated glycopeptide, antibody 0.01 mg/ml, mean of 3
T1 construct: also called T16^TF
T1 peptide: HGVTSAPDTRPAPGST(Galβ1‑3GalNAc)APP
Excerpt: (§1) Selected antibodies from Table 1 were further characterized for binding to synthetic MUC1 glycopeptides that were synthesized with the GalNac or GaNac-Gal carbohydrates on various serines and threonines along the MUC1 tandem repeat. If placed within the specific epitope recognized by an antibody, the antibody would not bind that particular glycopeptide.

[2] = molecular target: T2, SEQ ID NO: 346 glycopeptide with TF-antigen at Thr9; test: as above
T2 construct: also called T9^TF
T2 peptide: HGVTSAPDT(Galβ1‑3GalNAc)RPAPGSTAPP
Excerpt: as §1

[3] = molecular target: T3, SEQ ID NO: 346 glycopeptide with TF-antigen at Thr4; test: as above
T3 construct: also called T4^TF
T3 peptide: HGVT(Galβ1‑3GalNAc)SAPDTRPAPGSTAPP
Excerpt: as §1

[4] = molecular target: T4, SEQ ID NO: 346 glycopeptide with TF-antigen at Ser5 (not fully specified (residue 5)); test: as above
T4 construct: also called S5^TF
T4 peptide: HGVTSAPDTRPAPGSTAPP
Excerpt: as §1

[5] = molecular target: T5, SEQ ID NO: 346 glycopeptide with TF-antigen at Thr4 and Thr9; test: as above
T5 construct: also called T4^TF/T9^TF
T5 peptide: HGVT(Galβ1‑3GalNAc)SAPDT(Galβ1‑3GalNAc)RPAPGSTAPP
Excerpt: as §1

[6] = molecular target: T6, SEQ ID NO: 346 glycopeptide with Tn-antigen at Thr4, Thr9 and Thr16; test: as above
T6 construct: also called T4^Tn/T9^Tn/T16^Tn
T6 peptide: HGVT(αGalNAc)SAPDT(αGalNAc)RPAPGST(αGalNAc)APP
Excerpt: as §1

[7] = molecular target: T7, 100 aa-long synthetic MUC1 peptide (…)5; test: ELISA titration on coated 100-mer peptide, EC50 approximated
T7 construct: also called 100-mer; vaccine 100-mer peptide
Excerpt: Heavy and light chains of antibodies reactive against MUC1 were generated from plasma of individuals vaccinated with a 100 aa-long synthetic MUC1 peptide (100-mer) representing the unglycosylated tumor associated MUC1 antigen (Kimura et al., 2013, Cancer Prev. Res. (Phila.), 6:18-26). Binding of monoclonal antibodies produced by combinatorial pairing of chains was characterized by ELISA using the vaccine 100-mer peptide consisting of the following sequence ([…])₅ (SEQ ID NO: 2). Briefly, 96-well high-binding ELISA plates were coated with 50 μl of the peptide diluted in carbonate buffer at 2 μg/ml. The wells were washed then blocked with 5% fat-free milk in phosphate-buffered saline (PBS). Antibodies were diluted in 5% milk in PBS with 0.1% TWEEN 20 (PBS-T) and then added to the peptide-coated, blocked wells and incubated at 37° C. for 2 hours, after which the wells were washed. Binding of antibody was probed with an anti-human IgG goat antibody conjugated to horseradish peroxidase (HRP), and signal was detected with 3,3′,5,5′-tetramethylbenzidine (TMB) substrate, which was neutralized with an acid, then the 450 nm absorbance was read. […] Additionally, the EC₅₀ of each antibody was approximated by ELISA titration (Table 1).

[8] = molecular target: T8, Synthetic peptide (GVTSAPDTRPAPGSTAPPAH)2; test: ELISA on coated peptide, antibody 0.01 mg/ml, mean of 3
T8 peptide: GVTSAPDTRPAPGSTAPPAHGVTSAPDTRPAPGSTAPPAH
Excerpt: as §1

[9] = molecular target: T9, Synthetic peptide HGVTSAPDTRPAPGSTAPP; test: as above
T9 construct: Unglycosylated; also called 346; MUC1 repeat
T9 peptide: HGVTSAPDTRPAPGSTAPP
Excerpt: as §1

B1: M7 (antibody, human IgG1, kappa, V domains shown)
VH: EVQLVESGGGLVQPGGSLRLSCAASGFTVSSNYMSWVRQAPGKGLEWVSVIYSGGSTYYADSVKGRFTISRDNSKNTLYLQMNSLRAEDTAVYYCARGSTNTYYYDSSGHPWGQGTMVTVSS
VL: DIVMTQSPLSLPATPGEPASISCRSSQSLLHSNGYTYLDWYLQKPGQSPQVLIYLASNRASGVPDRFSGSGSGTNFTLKISRVEAEDVGLFYCMQALQTPQTFGQGTKLEIKR
notes: Human IgG
In the case of B1, the “ELISA absorbance at 450 nm” value [1] is reported as 0.1 absorbance, the “ELISA absorbance at 450 nm” value [2] is reported as 0.1 absorbance and the “ELISA absorbance at 450 nm” value [3] is reported as 0.1 absorbance. For the same binder, the “ELISA absorbance at 450 nm” value [4] was 0.1 absorbance, the “ELISA absorbance at 450 nm” value [5] was 0.1 absorbance and the “ELISA absorbance at 450 nm” value [6] was 0.1 absorbance. The EC50 [7] was 0.011 µg/mL, the “ELISA absorbance at 450 nm” value [8] was 3.5 absorbance and the “ELISA absorbance at 450 nm” value [9] was 0.1 absorbance.
